Data: paper PMC3001049
Read-outs that look alike come from different tables or passages of the source.

Legend:
[1] = target: T1, XPA (human, UniProt P23025 1-273); assay: photocrosslinking
[2] = target: T1, XPA; assay: photocrosslinking; remark: listed apart in the source

T1 sequence (P23025 whole entry): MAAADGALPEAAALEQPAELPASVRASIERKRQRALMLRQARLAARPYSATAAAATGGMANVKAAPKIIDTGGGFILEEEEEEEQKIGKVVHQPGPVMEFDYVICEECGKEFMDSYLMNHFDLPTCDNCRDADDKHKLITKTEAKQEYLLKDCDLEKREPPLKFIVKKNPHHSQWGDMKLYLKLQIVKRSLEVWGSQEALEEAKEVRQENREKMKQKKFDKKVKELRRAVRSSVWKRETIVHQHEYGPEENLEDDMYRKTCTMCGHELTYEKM

Binder | binding result [1] | binding result [2]
damaged duplex Fg/4 (dsDNA, strand 1 T23 = Flu-dUMP; strand 2 T30 = 5-iodo-dUMP) DNA 1: GTCGTTCGGAAGACCCTGACGTTGCCCAACTTAATCGCCTCGCCATAG DNA 2: CTATGGCGAGGCGATTAAGTTGGGCAACGTCAGGGTCTTCCGAACGAC | binds | –
damaged duplex FI3/N (dsDNA, strand 1 T17 = 5-iodo-dUMP, T22 = Flu-dUMP) DNA 1: GTCGTTCGGAAGACCCTGACGTTACCCAACTTAATCGCCTCGCCATAG DNA 2: CTATGGCGAGGCGATTAAGTTGGGTAACGTCAGGGTCTTCCGAACGAC | – | binds
